Publication PMC101404

Substrate: NCC(N)C(=O)O
Experiment: purified protein
Assay type: biochemical, Salmonella enterica
Conditions: potassium phosphate pH 8.0, 28 °C, PLP, NADH, LDH coupling

B1: Diamino propionic acid (DAP) ammonia lyase (Salmonella enterica subsp. enterica serovar Typhimurium str. LT2) (protein)
chain: MHELIKYQFNTRRKKYGTGAALSLLNGNVGHEVLAFHKKLPNYAVTPLHNLAHLSQRLGLGSIHIKDESWRFGLNAFKGLGGSYAVGKYLADKLQCDINSLSFAALNTPEIKEKIKDCVFVTATDGNHGRGVAWAAEQLGLKAVVYMPKGSSLIRAENIRHHGAECTITDLNYDDAVRLAHRMAQTKGWVLLQDTAWTGYEEIPTWIMQGYMTLAVEAYEQLAETNSPLPTHLILQAGVGSFAGSVMGYFVEKMQENIPNIIVVEPHQANCLYQSAVMDDGQPHCVTGDMATIMAGLACGEPNIISWPIIRDNTSCFISADDCLAAKGMRISAAPRPGTDTPFISGESGAIGVGLLYELMNNMHYQDLANRLQLDASAHVLLISTEGDTSPDIYEDIVWNGRSA
B1 gave a Km of 685 µM.
